Experimental data: publication PMC5436651 (PLoS ONE, 2017)

Tests used:
[1] = molecular target: the molecule itself; experiment: crystal structure; RIP2K_(L294F) 5 mg/ml with 2 mM AMPPCP and 5 mM MgCl2; sitting drop, 20°C; P4(1)2(1)2, a dimer in the asymmetric unit; 2.0 Å
[2] = molecular target: the molecule itself; experiment: AUC; sedimentation velocity at increased protein concentration (RIP2K at 10 and 18 μM; range tested 4 to 18 μM); 42,000 r.p.m., 4°C; 20 mM Tris pH 7.5, 50 mM NaCl, 5% glycerol, 250 μM TCEP; oligomers beyond the dimer
[3] = molecular target: the molecule itself; experiment: AUC; sedimentation velocity at low protein concentration (3-5 μM); 42,000 r.p.m., 4°C; 20 mM Tris pH 7.5, 50 mM NaCl, 5% glycerol, 250 μM TCEP; monomer to dimer
[4] = molecular target: the molecule itself; experiment: native MS; 3-5 μM protein in 250 mM ammonium acetate with 1 mM DTT, nano-ESI Q-TOF; RIP2K_(D146N) as the staurosporine sample

B1: RIP2K_(L294F) (RIP2 kinase domain 1-300 with the spontaneous mutation L294F), crystallised with AMPPCP (domain or fragment)
chain: GAMAMNGEAICSALPTIPYHKLADLRYLSRGASGTVSSARHADWRVQVAVKHLHIHTPLLDSERKDVLREAEILHKARFSYILPILGICNEPEFLGIVTEYMPNGSLNELLHRKTEYPDVAWPLRFRILHEIALGVNYLHNMTPPLLHHDLKTQNILLDNEFHVKIADFGLSKWRMMSLSQSRSSKSAPEGGTIIYMPPENYEPGQKSRASIKHDIYSYAVITWEVLSRKQPFEDVTNPLQIMYSVSQGHRPVINEESLPYDIPHRARMISLIESGWAQNPDERPSFLKCLIELEPVFRTFEEI
notes: The methods say the AMPPCP crystals came from RIP2K_(L294F); the results call this structure wild-type RIP2K; no density for the phosphorylation sites; also called RIPK_(L294F); RIP2K-AMPPCP; not shown: His-tag, N-terminal, cleaved
- binding result [1]: binds

B2: RIP2K_(K47R) (RIP2 kinase domain 1-300, kinase-dead mutant K47R, not phosphorylated) (domain or fragment, UniProt O43353 1-300, looked up)
chain: MNGEAICSALPTIPYHKLADLRYLSRGASGTVSSARHADWRVQVAVRHLHIHTPLLDSERKDVLREAEILHKARFSYILPILGICNEPEFLGIVTEYMPNGSLNELLHRKTEYPDVAWPLRFRILHEIALGVNYLHNMTPPLLHHDLKTQNILLDNEFHVKIADFGLSKWRMMSLSQSRSSKSAPEGGTIIYMPPENYEPGQKSRASIKHDIYSYAVITWEVLSRKQPFEDVTNPLQIMYSVSQGHRPVINEESLPYDIPHRARMISLIESGWAQNPDERPSFLKCLIELEPVLRTFEEI
notes: Not phosphorylated by mass spectrometry; also called Rip2_(K47R)
- stoichiometry N [2]: 4
- stoichiometry N [3]: 2

B3: RIP2K_(D146N) (RIP2 kinase domain 1-300, kinase-dead mutant D146N, not phosphorylated) (domain or fragment, UniProt O43353 1-300, looked up)
chain: MNGEAICSALPTIPYHKLADLRYLSRGASGTVSSARHADWRVQVAVKHLHIHTPLLDSERKDVLREAEILHKARFSYILPILGICNEPEFLGIVTEYMPNGSLNELLHRKTEYPDVAWPLRFRILHEIALGVNYLHNMTPPLLHHNLKTQNILLDNEFHVKIADFGLSKWRMMSLSQSRSSKSAPEGGTIIYMPPENYEPGQKSRASIKHDIYSYAVITWEVLSRKQPFEDVTNPLQIMYSVSQGHRPVINEESLPYDIPHRARMISLIESGWAQNPDERPSFLKCLIELEPVLRTFEEI
notes: Not phosphorylated by mass spectrometry; also called RIP2K_(D146N)-STAU; RIP2KD146N-STAU; source: mixed with 0.5 mM staurosporine during dialysis
- stoichiometry N [4]: 2

B4: RIP2K (kinase domain of Receptor Interacting protein kinase 2, residues 1-300), wild type, phosphorylated (domain or fragment, UniProt O43353 1-300, looked up)
chain: MNGEAICSALPTIPYHKLADLRYLSRGASGTVSSARHADWRVQVAVKHLHIHTPLLDSERKDVLREAEILHKARFSYILPILGICNEPEFLGIVTEYMPNGSLNELLHRKTEYPDVAWPLRFRILHEIALGVNYLHNMTPPLLHHDLKTQNILLDNEFHVKIADFGLSKWRMMSLSQSRSSKSAPEGGTIIYMPPENYEPGQKSRASIKHDIYSYAVITWEVLSRKQPFEDVTNPLQIMYSVSQGHRPVINEESLPYDIPHRARMISLIESGWAQNPDERPSFLKCLIELEPVLRTFEEI
modifications: auto-phosphorylated in vitro: phosphoserine at 174, 176, 178 and at 180 or 181 (a maximum of five phosphorylation sites)
notes: also called WT RIP2K; RIP2K_(1-300); source: de-phosphorylated with lambda phosphatase and re-phosphorylated before native MS and AUC
- stoichiometry N [3]: 2
